From patent US20100068217A1

Columns and labels:
[1] = target: gp41e-1KU2 (Thermus aquaticus (origin of the scaffold protein, Table 1)); experiment: ELISA, antigen on the plate, 2F5 IgG titrated 2.6e-7 to 1e-1 ug/ul
MPER WT peptide [2] = experiment: as above
[3] = target: gp41e-1KU2 (Thermus aquaticus (origin of the scaffold protein, Table 1)); experiment: kinetics with 2F5 as analyte (Biacore per paragraph 255)
[4] = target: gp41e-2MAT (E. coli (origin of the scaffold protein, Table 1)); experiment: as above
MPER WT peptide [5] = experiment: as above
[6] = target: MPER Cyclized peptide (HIV-1 gp41 MPER-derived, synthetic); experiment: as above
[7] = target: gp41e-1LGY (Rhizopus niveus (origin of the scaffold protein, Table 1)); experiment: as above

## 2F5 antibody
[1]
  EC50 (read off the curve): 0.2 µg/mL
MPER WT peptide [2]
  EC50 (read off the curve): 0.2 µg/mL
[3]
  Kd: 2.63 nM
  koff: 0.00287 s⁻¹
  kon: 1.09e+06 M⁻¹ s⁻¹
[4]
  Kd: 9.35 nM
  koff: 0.000679 s⁻¹
  kon: 72600 M⁻¹ s⁻¹
MPER WT peptide [5]
  Kd: 6.45 nM
  koff: 0.00356 s⁻¹
  kon: 552000 M⁻¹ s⁻¹
[6]
  Kd: 5.09 nM
  koff: 0.00269 s⁻¹
  kon: 528000 M⁻¹ s⁻¹
[7]
  Kd: 10.7 nM
  koff: 0.00396 s⁻¹
  kon: 369000 M⁻¹ s⁻¹
